Experiment in all cases: cell-based or functional assay
Experiment [1] concerns the target human DOP receptor (human) (UniProt P41143).
Experiment [2] concerns the target human KOP receptor (human) (UniProt P41145).
Experiment [3] concerns the target human MOP receptor (human) (UniProt P35372).
The target of experiment [4] is human NOP recombinant receptor (N/OFQ peptide receptor) (human) (UniProt P41146).
Experiment [5] deals with native mouse NOP receptor (mouse vas deferens) (mouse) (UniProt P35377).
Sequence of native mouse NOP receptor (mouse vas deferens) (mouse) (P35377 whole entry): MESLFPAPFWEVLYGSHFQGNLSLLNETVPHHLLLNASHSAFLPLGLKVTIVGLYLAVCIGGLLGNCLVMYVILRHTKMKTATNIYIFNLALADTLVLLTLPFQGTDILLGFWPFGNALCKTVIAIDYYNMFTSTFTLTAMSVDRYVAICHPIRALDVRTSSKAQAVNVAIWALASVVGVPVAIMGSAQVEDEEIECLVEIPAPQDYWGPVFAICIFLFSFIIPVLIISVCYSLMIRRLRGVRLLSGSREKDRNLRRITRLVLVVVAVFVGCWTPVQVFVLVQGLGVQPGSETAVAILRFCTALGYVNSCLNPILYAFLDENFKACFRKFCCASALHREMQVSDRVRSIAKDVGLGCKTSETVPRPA

From US9962447 come the findings set out here.

Sequence of human NOP recombinant receptor (N/OFQ peptide receptor) (human) (P41146 whole entry): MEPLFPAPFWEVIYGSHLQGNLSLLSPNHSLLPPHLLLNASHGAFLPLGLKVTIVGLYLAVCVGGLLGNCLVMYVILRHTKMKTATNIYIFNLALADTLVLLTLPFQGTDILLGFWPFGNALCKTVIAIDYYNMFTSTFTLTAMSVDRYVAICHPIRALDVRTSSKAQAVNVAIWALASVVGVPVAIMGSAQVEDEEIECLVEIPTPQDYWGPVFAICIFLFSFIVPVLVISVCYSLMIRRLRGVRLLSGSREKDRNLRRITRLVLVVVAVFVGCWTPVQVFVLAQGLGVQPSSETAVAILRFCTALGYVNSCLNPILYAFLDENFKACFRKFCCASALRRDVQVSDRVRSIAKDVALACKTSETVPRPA
Sequence of human KOP receptor (human) (P41145 whole entry): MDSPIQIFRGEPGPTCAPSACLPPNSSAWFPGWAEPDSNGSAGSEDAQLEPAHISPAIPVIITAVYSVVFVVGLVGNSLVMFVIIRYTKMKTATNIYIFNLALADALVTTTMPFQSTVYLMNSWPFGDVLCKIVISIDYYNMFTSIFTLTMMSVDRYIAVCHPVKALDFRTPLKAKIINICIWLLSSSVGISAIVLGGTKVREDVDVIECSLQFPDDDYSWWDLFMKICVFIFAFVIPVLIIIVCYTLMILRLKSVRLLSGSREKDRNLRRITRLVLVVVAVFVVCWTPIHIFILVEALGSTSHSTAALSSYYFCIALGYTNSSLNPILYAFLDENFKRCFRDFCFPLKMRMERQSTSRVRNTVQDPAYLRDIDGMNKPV
Sequence of human DOP receptor (human) (P41143 whole entry): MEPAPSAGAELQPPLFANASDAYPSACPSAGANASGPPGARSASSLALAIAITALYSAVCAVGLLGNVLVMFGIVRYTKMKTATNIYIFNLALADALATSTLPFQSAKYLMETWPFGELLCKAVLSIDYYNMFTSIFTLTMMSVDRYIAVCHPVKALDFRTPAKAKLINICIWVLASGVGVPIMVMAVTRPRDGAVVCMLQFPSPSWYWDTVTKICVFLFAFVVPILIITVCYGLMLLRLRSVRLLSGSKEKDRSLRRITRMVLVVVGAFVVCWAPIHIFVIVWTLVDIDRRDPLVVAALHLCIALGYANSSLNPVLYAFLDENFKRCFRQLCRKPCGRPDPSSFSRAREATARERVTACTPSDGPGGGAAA
Sequence of human MOP receptor (human) (P35372 whole entry): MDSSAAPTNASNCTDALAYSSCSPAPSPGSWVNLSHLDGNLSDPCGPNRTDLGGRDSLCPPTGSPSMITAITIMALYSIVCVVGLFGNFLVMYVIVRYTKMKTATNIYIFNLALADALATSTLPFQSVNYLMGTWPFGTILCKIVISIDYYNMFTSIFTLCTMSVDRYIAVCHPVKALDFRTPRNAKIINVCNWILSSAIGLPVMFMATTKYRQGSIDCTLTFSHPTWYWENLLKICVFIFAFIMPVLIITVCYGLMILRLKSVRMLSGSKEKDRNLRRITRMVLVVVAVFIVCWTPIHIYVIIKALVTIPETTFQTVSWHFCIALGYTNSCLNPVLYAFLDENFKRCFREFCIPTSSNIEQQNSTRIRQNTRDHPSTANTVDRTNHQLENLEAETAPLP

As for DPDPE (peptide), the calcium mobilization, maximal effects in experiment [1] was determined as 86%. The calcium mobilization, pEC50 (pEC50 (-log10 M)) in experiment [1] was found to be 9.57. Besides, the calcium mobilization, potency in experiment [2], in experiment [3] and in experiment [4] was > 1000 nM each time.
“nociceptin/orphanin FQ (N/OFQ) peptide (from UniProt Q13519 20-176)”: in experiment [1], the calcium mobilization, potency is > 1000 nM. The calcium mobilization, potency in experiment [2] was > 1000 nM. Moreover, the calcium mobilization, potency in experiment [3] was > 1000 nM. Besides, in experiment [5], the electrically stimulated mouse vas deferens, Emax (% inhibition of control twitch) is 88; the electrically stimulated mouse vas deferens, pEC50 (pEC50 (-log10 M)) was 7.37; the mouse vas deferens from NOP(+/+) mice, Emax was 92%; the mouse vas deferens from NOP(+/+) mice, pEC50 (pEC50 (-log10 M)) was determined as 7.68.
For “dynorphin A (from UniProt P01213 207-223) (peptide)”, in experiment [3], the calcium mobilization, pEC50 (pEC50 (-log10 M)) was 6.67. In addition, the calcium mobilization, potency in experiment [4] was > 1000 nM.
For dermorphin (peptide), the calcium mobilization, potency in experiment [1], in experiment [2] and in experiment [4] was > 1000 nM each time. Further, the calcium mobilization, maximal effects in experiment [3] was determined as 135%.
For “PWT2-N/OFQ (supramolecular aggregate of the PWT2 maleimido core with [Cys18]N/OFQ-NH2) (from UniProt Q13519 20-176)”, the calcium mobilization, potency in experiment [1] is > 1000 nM. Further, the calcium mobilization, potency in experiment [2] was > 1000 nM. The calcium mobilization, potency in experiment [3] is > 1000 nM. In experiment [5], the electrically stimulated mouse vas deferens, Emax (% inhibition of control twitch) amounted to 93; the electrically stimulated mouse vas deferens, pEC50 (pEC50 (-log10 M)) was 7.78; the mouse vas deferens from NOP(+/+) mice, Emax came to 91%; the mouse vas deferens from NOP(+/+) mice, pEC50 (pEC50 (-log10 M)) came out at 7.92.
